B1: recombinant BAG1 expressed from pET-32a-BAG1 (natural protein, chicken, UniProt F1NPL0 1-209, looked up)
chain: MAVPGAPVSVTVTYSNEKHNIQVASQQEDGEPTLQDMAVLIEQVTGVPVSFQKLIYKGKSLKELEQPLSALGVKNGCKVMLIGKRNSPEEEAELKKLKDLEKSVEQIANKLEEVNKEFTSIQKGFLAKDLQAEALKQLDKRIKGTAEQFMKILEQVDAINLPENFNDCRLKKKGLVKRVQAFLAQCDTVEGNIGQEMDKLQSKNLALAE
B2: recombinant ENDOUL expressed from pET-32a-ENDOUL (natural protein, chicken, UniProt A0A8V0YKR0 1-289, looked up)
chain: MADRKALNHELSKLFNEMWDMDVNRFTPGKDYAIELQGKADAVLQGDSVVQDSAARHLFHYVNEERLKNIKTFATFISLLDNYETSTGVEEIVTPEEIAENNCFLDAILMTGVMKLAHEYLLKKKLAKPNLADFKYQLYDIWFQLYPRKEGDRPDSCGFEHVFVGETRRGKQILGLHNWVQFYLQEKHKQIDYKGYIARKNKTRPDRDDQVLSIQFSWKGSVKPIGSTFIGVSPEFEFALYTVIFLLSEERVTRKTVKIEEYELQIVVCRHGRHIGTAYPVLLNTSNED

Molecular target: T1, pGEX-6P-1-EtMIC3 recombinant protein (E. tenella, UniProt B6VCV4 1-988)
T1 sequence (looked up): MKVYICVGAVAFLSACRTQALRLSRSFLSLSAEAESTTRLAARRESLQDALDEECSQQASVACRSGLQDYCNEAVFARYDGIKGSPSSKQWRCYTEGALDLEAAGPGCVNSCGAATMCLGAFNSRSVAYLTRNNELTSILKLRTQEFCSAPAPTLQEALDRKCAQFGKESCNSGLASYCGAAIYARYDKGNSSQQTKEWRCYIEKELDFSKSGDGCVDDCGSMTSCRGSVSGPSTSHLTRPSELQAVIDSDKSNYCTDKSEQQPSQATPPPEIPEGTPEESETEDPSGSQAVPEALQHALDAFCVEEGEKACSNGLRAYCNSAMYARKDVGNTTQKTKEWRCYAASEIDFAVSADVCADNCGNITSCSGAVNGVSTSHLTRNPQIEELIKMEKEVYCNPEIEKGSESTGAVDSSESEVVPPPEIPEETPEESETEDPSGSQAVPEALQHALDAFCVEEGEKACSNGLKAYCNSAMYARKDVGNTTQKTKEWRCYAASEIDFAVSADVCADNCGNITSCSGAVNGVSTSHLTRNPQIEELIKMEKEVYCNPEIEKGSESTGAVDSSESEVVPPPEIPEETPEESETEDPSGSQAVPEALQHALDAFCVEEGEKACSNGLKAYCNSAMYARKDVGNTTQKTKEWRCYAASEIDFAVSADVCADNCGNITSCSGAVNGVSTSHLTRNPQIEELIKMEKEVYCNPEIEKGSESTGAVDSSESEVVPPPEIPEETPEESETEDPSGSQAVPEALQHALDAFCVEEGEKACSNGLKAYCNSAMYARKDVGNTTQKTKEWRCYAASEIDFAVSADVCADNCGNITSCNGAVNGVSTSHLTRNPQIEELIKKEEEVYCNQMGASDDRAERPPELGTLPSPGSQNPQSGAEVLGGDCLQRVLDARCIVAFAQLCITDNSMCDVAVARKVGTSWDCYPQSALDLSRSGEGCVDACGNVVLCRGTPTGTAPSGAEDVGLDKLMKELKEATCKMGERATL
Assay: cell-based or functional assay

Binder | oocyst decrease ratio (%) in chickens challenged with 5 × 10^4 E. tenella sporulated oocysts and injected intravenously with anti-BAG1 serum every day for 7 days [%] | oocyst decrease ratio (%) in chickens challenged with 5 × 10^4 E. tenella sporulated oocysts and injected intravenously with anti-ENDOUL serum every day for 7 days [%]
B1 | 3.63 | 
B2 |  | 5.07

Source: article PMC7367391, “EtMIC3 and its receptors BAG1 and ENDOUL are essential for site-specific invasion of Eimeria tenella in chickens” (Veterinary Research, 2020)
